T1: MLO2-NLuc (A. thaliana, UniProt Q9SXB6 1-573)
T1 sequence: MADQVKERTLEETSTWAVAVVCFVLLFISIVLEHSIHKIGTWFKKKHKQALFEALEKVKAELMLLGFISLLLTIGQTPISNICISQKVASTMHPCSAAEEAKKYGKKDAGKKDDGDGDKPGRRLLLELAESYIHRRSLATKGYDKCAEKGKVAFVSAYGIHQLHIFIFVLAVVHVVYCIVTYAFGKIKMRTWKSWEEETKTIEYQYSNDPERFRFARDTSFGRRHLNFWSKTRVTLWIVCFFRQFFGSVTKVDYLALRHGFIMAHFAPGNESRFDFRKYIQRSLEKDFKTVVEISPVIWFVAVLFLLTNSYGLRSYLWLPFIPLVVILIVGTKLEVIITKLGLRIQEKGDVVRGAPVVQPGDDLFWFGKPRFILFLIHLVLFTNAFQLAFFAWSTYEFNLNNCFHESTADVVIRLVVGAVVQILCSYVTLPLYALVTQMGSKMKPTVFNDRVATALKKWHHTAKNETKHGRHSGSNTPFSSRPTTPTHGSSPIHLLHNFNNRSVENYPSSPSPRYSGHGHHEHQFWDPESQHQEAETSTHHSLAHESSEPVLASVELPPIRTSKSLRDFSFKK

T2: MLO12-NLuc (A. thaliana, UniProt O80961 1-576)
T2 sequence: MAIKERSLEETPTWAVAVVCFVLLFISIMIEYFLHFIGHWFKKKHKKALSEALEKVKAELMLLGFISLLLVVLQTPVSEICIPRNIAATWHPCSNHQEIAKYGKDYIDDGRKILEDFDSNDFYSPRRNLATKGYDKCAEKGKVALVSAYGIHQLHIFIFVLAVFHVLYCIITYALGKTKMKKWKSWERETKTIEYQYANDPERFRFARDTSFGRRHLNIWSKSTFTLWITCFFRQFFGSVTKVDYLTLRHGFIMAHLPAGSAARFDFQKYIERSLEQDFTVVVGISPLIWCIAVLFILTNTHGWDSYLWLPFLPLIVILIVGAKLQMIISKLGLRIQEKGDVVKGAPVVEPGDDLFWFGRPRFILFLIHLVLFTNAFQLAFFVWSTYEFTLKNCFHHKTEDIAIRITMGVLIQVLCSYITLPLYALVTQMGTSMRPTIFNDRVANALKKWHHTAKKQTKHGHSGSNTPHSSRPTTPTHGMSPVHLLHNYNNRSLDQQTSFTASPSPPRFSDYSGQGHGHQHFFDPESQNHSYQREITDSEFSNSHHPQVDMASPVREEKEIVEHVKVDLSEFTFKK

T3: MLO6-NLuc (A. thaliana, UniProt Q94KB7 1-583)
T3 sequence: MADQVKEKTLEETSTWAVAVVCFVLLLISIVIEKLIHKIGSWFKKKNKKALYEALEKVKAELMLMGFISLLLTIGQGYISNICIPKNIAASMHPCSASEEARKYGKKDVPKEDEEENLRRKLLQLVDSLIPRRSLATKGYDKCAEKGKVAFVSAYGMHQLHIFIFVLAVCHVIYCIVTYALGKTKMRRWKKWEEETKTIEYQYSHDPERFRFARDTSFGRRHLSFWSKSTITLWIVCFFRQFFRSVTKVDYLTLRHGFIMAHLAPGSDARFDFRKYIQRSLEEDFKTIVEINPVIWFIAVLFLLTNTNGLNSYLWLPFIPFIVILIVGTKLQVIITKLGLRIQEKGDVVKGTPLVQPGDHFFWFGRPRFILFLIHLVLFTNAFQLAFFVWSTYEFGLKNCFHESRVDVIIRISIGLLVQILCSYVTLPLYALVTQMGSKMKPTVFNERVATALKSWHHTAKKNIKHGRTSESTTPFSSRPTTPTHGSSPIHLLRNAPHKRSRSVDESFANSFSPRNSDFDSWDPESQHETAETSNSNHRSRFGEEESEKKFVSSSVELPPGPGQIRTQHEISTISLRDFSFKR


Experiments:
Experiment in all cases: split reporter
[1] = molecular target: T1, MLO2-NLuc
[2] = molecular target: T2, MLO12-NLuc
[3] = molecular target: T3, MLO6-NLuc

Row | Binder | relative luminescence (in relation to the calmodulin positive control) [1] | relative luminescence (in relation to the calmodulin positive control) [2] | relative luminescence (in relation to the calmodulin positive control) [3]
1 | CLuc-EXO70B2 (natural protein) MAEAGDENLYAAARDIARALGKDPSAAGDILQILSGYGASGNRGGDPRPTPSRGGSNVNFDRALTSLERQISSYIVEDRPIWSDPVDSRTFLDSVDELLAIAGDLRSMAGDKSVAVCQSRADELIQQVMFRLQEEFGFVMDRAPDSFDSDDEFPGEEDNDTSDGVIVARPITDYKIVIEALQSSVIGDLNAIAVRMVAGGFAKECSRVYSSRRREFLEESLSRLHLRGLSMEEVQESPWQDLEDEIDRWIKAVTLIFHVFFPSERLLCDRVFSDLPVSSVTDLSFMEVCRGTTTQLLNFADAIALGSRLPERLFKVVDLYEAMQDLIPKMETLFSDRYCSPLRHEALAIHKRLGEAIRGIFMELENLIRRDPPKTAFPGGGIHPITRYVMNYLRAACKSRQSLEQILDQTGNETGSDTRPLSVQIIWVLELLESNLEGKKRTYRDPSLCFLFMMNNDKYILDKAKDNELGLVLGEDWIVKHAAKLRQYHSNYRRSSWNQVVGLLRTDGPYPKLVENLRLFKSQFDEVCKVQSQWVVSDGQLREELRSSVAGIVSPAYSNFIRRLKESPEINGRRGEPFIPYTVEDVEFIIKRLFKESSS | ~0.56 |  | 
2 | CLuc-EXO70H1 (natural protein) MAKMAKFSFFSSSSPKYHPSSPSSFTSFPASPLNQNFTQAMMEETVETADSVIRKWDPNTPSFTKIVSLFNHSRKEAKEFIRCVRDLRRAMHFLVSQDSQSPKLALAQTLMQIAMARLEKEFFQILSSNRDKLDPESVSGQSSISSNSEFEDVMGSDDDDESDNEMRKAGESITQVEKASAMVMSDLKAIAESMISCGYGKECVKIYKRVRKSIVDEGLSLLGIEIYKGSRFHRTDWVTLEHMIKNWIKAAKIGIATLFRGEKLLCDHVFSASNSTRESCFYEIANEAATNLFKFPEFVAKEKKSHERIFPLMDLQAAISDLWQDIEMIFHFDAVAGVKSQALTSLQKLKVSIHSALTDFESIIQKDTTKALTPGGGIHKLTRSTMNFISSLSKYSGVLSEILADHPLPRNTRLLESYVRAPISEDEQHNHALSVHFAWLILVLLCKLDTKAEHYKDVSLSYLFLANNLQIIIETVGSTPLRNLLGDDWLNKHEDKLCAYAGNYEIAAWSNVFMSLPEEPTDLSPEEAKIYFRRFHTAFEEAYMKQSSRVVPNAKLRDELKVSIAKKLVPEYREFYRKYLPMLGQERNIEILVRFKPDNLENYISDLFHGTPIHASSSFSSSSSSSSWKSLGCVSG | ~0.39 | ~0.37 | 
3 | CLuc-EXO70H4 (natural protein) MMTRKAMINICCVATTPSKYPPPPPLTLTPRQSLESAAIYGVIESAADIIERWNTETNTFAKVTCMFYENKPEAMMFIERVKDLQKTMDVLVSEDPNSERLLRSHKLMQIAMKRLQKEFYQILSMNRAYLDPESVSTRSSLTSARSSYSDFPDYVEDLDTIIELEEVSTNVMTDLKSIAECMIGSGYAKECLSIYKSIRKSIIDEGIYRLEVEKTSTGKVKKMSWEVMELKIRSWLKAVKVSMETLFKGEKILCDHVFESSDAIRESCFSDISRDGALLLFGFPEIINTKTSKKHSPPEKVFRLLDMYTAIAGNWQAIESIFSFDSISVVRSLALKSLISLSESIRSLLVEFESGIQKDSSKVVVPGGGVHPLTISVMDHLSLLADYSNVLVDILAGSPPPDRSLLPESYFNVSESDDSPSSELTIRFAWIILVLLCKIDRKSIHYKDFSIQYLFLTNNLQHVVSRARSSNLKNLLGEDWITRHFAKMRQFAGSYKRLAWGPVVATLPENRTVEMTPEEVKERFEKFSESFENAYSKHSVCVVADPNIRDEIKVSISRKLVPIYREFYNTRGSVILGEGDGARNLNSVVRFTPEDIENYLSDLFREKGSSGNSSASSPSSCRSRQSMS | ~0.4 |  | ~0.67
